Data taken from patent publication US20260083859A1, “SUSTAINED TRANSGENE EXPRESSION OF MODIFIED ERT2 PEPTIDE-SUICIDE PROTEIN FUSION POLYPEPTIDES” (Senti Biosciences, Inc., priority 2023, published 2026).
“Also recorded” adds a separate entry of the source.

How the values were obtained:
iPSC clones = assay: Apoptotic efficacy in individual construct clones treated with 4-OHT, Endoxifen or combinations; type: cell-based, human; details: for apoptotic (killing) efficacy: 24 hours
Experimental: Next, individual clones that were determined to be suitable for further assessments were evaluated for 24 hours in the presence of 4-OHT at two different concentrations.
Individual Construct 1-4 clones were also assessed for their responses to another tamoxifen metabolite, Endoxifen. Clones were evaluated for 24 hours in the presence of Endoxifen at three different concentrations.
Tamoxifen is a prodrug that is broken down into its active metabolites in vivo. To model predicted drug concentrations in a patient, the clone Construct 1 c.165 was treated with various combinations of 4-OHT and Endoxifen, wherein 1.25 nM Endoxifen was combined with a concentration of 4-OHT ranging between 0.125 nM to 1 nM (FIG. 12A). […] In the next evaluation, 0.125 nM 4-OHT was combined with either 0.625 or 1.25 nM Endoxifen (FIG. 12B).

[1] = test system: PSC-derived myeloid progenitor cells; assay: TamCasp9 Safety Switch activation in PSC-derived myeloid progenitor cells, AOPI staining, Incucyte SX5; type: cell-based, human
Experimental: A hPSC line engineered with TamCasp9 Construct 1 and an unedited parental control hPSC line were differentiated into myeloid progenitor cells through the addition of various growth factors and small molecules. Differentiated cells were plated at 1×10^5 cells/cm^2 in an ultra-low attachment cell culture plate for further myeloid cell maturation. After 7 days in maturation medium, cells were collected and frozen down.
For testing of TamCasp9 Safety Switch activation, myeloid cells were plated at 1.5×10^5 cells/cm^2 in a 96-well tissue culture plate with a 1:750 dilution of ViaStain AOPI Staining Solution (Nexcelom) in X-VIVO 15 Medium with 10 ng/mL GM-CSF. The kill switch was induced with 0, 1, 10 or 100 uM of Endoxifen over 3 days and images were collected every 6 hours on the Incucyte SX5 (Sartorius).
To better model predicted drug concentrations in a patient by testing activation of the kill switch against a range of tamoxifen metabolites, the PSC clone Construct 1 c.165, engineered to incorporate an exemplary modified ERT2 peptide-suicide protein fusion polypeptide construct (Table 3), was differentiated to myeloid progenitor cells as depicted in FIG. 13A. Differentiated cells were plated at 1×10^5 cells/cm^2 in an ultra-low attachment cell culture plate for further myeloid cell maturation. After 7 days in maturation medium, cells were collected and frozen down. For testing of TamCasp9 Safety Switch activation, myeloid cells were plated at 1.0×10^5 cells/cm^2 in a 96-well tissue culture plate with a 1:750 dilution of ViaStain AOPI Staining Solution (Nexcelom) in X-VIVO 15 Medium with 10 ng/mL GM-CSF. The kill switch was induced with varying concentrations of combination 4-OHT and Endoxifen treatment over 4 days and images were collected every 4 hours on the Incucyte SX5, with 12 hour timepoints plotted on a graph (Sartorius) (FIG. 14). Either 2.5 nM or 5 nM of Endoxifen was tested in combination with either 0.5 nM, 1 nM or 10 nM of 4-OHT. 100 nM Endoxifen was added as positive killing control as per FIG. 13E.

human iPSCs [2] = assay: Junction GAPT2A ddPCR of knock-in iPSC pools for integration at GAPDH locus, with or without 4-OHT; type: cell-based; details: pooled iPSCs treated with 1 nM 4-OHT
Experimental: Modified ERT2 peptide-suicide protein fusion polypeptide encoding constructs were delivered to human iPSCs via Nucleofection with a GAPDH targeting ribonucleoprotein (RNP) complex comprising of Cpf1 endonuclease and a single guide RNA (sgRNA) targeting the coding sequence of the GAPDH gene. The sgRNA comprised a sequence 5′ […] 3′ (SEQ ID NO: 60). Briefly, iPSCs were cultured in Essential 8 (E8) medium and maintained at 37° C. at 5% CO2 level between passages. Passages were done at 75 to 80% confluency. On the day of Nucleofection, iPSCs were thawed and immediately Nucleofected in Lonza P3 Primary Cell Nucleofection buffer. 7.5 μg of each plasmid construct (BRC00058-61) were Nucleofected into iPSCs using GAPDH Cpf1 RNP with LONZA 4D Nucleofector. The Nucleofected cells were then plated at 50,000 cells/cm^2 per well of a 6-well plate and grown in E8 medium (plus Rock inhibitor Y-27632 from Tocris) for 72 to 96 hours. Knock-in pools were screened for integration 7d post-Nucleofection using ddPCR, as well as conventional PCR.
Whereas the integration dropped from 5.7% to 1% in Construct 1-transfected cell pools and from 4.5% to 0.7% in Construct 2-transfected cell pools when treated with 1 nM 4-OHT (FIG. 4A).

iPSCs = assay: Apoptosis induction in transfected iPSCs monitored by microscopy and Incucyte tracking; type: cell-based, human; details: construct-transfected iPSCs, 1 nM 4-OHT, up to two days
human iPSCs [3] = assay: Flow cytometric analysis of cleaved Caspase-3 in transfected iPSCs; type: cell-based; details: 1 nM 4-OHT, two-day treatment
Text: In another set of assessments, Construct 1 or Construct 2 transfected iPSCs were harvested for flow cytometric analysis. The primary antibody used was an anti-human/mouse cleaved Caspase-3. The primary antibody detects human and mouse Caspase 3 cleaved at Asp175.

Row | Molecule | fusion polypeptide sequence integration (junction GAPT2A ddPCR) (human iPSCs [2]) [%] | apoptosis / cell killing (iPSCs) | apoptosis (cleaved Caspase-3 flow cytometry) (human iPSCs [3]) | other results
1 | CC/C(=C(\c1ccc(O)cc1)c1ccc(OCCNC)cc1)c1ccccc1 [Endoxifen, endoxifen, reference compound] | – | – | – | lowest effective concentration in 4-OHT-Endoxifen combination (iPSC clones; clone Construct 1 c.165): 1.25 nM; apoptosis in unedited cells ([1]; unedited differentiated myeloid progenitors, combination 4-OHT and Endoxifen treatment): did not induce apoptosis
2 | Construct 1: GAPDH-targeting construct encoding modified ERT2 peptide-suicide protein fusion polypeptide ERT2*mut81-Casp9, SEQ ID NO: 44 (protein) AGDMRAANLWPSPLMIKRSKKNSLALSLTADQMVSALLDAEPPILYSEYDPTRPFSEASMMGLLTNLADRELVHMINWAKRVPGFVDLTLHDQVHLLECAWMEILMIGVVWRSMEHPVKLLFAPNLLLDRDQGKCVEGLVEIFDMLLATSSRFRMMNLQGEEFVCLKSIILLNSGVYTFLPSTLKSLEEKDHIHRVLDKITDTLIHLMAKAGLTLQQQHQRLAQLLLILSHIRHMSNKGMELLYSMKCKNVVPLYDLLLEAADAHRLHAPTSRGGASVEETDQSHLATAGSTSSHSLQKYYITGEAEGFPATGGGGSGGGGSGGGGSVDGFMDVGALESLRGNADLAYILSMEPCGHCLIINNVNFCRESGLRTRTGSNIDCEKLRRRFSSLHFMVEVKGDLTAKKMVLALLELARQDHGALDCCVVVILSHGCQASHLQFPGAVYGTDGCPVSVEKIVNIFNGTSCPSLGGKPKLFFIQACGGEQKDHGFEVASTSPEDESPGSNPEPDATPFQEGLRTFDQLDAISSLPTPSDIFVSYSTFPGFVSWRDPKSGSWYVETLDDIFEQWAHSEDLQSLLLRVANAVSVKGIYKQMPGCFNFLRKKLFFKTS | 1 | cells were completely killed by day 2 | able to induce apoptosis in the majority of the cells | apoptotic (killing) efficacy (iPSC clones; 1 nM 4-OHT): displayed higher efficacy than Construct 2-4 clones; also recorded: highest apoptotic efficacy; apoptotic (killing) efficacy (iPSC clones; 1 nM Endoxifen, compared to hygromycin control): approached the level of apoptosis by hygromycin control at 24 hours; apoptosis (kill switch activity) ([1]; 0, 1, 10 or 100 uM of Endoxifen over 3 days): induced apoptosis following endoxifen treatment
3 | Construct 3: GAPDH-targeting construct encoding fusion polypeptide ERT2*mut63-Casp9, SEQ ID NO: 48 (protein) AGDMRAANLWPSPLMIKRSKKNSLALSLTADQMVSALLDAEPPILYSEYDPTRPFSEASMMGLLTNLADREIVHMINWAKRVPGFVDLTLHDQVHLLECAWLEILMIGVVWRSMEHPVKLLFAPNLLLDRDEGKCVEGLVEIFDMLLATSSRFRMMNLQGEEFVCLKSIILLNSGVYTFLSSTLKSLEEKDHIHRVLDKITDTLIHLMAKAGLTLQQQHQRLAQLLLILSHIRHASNKGMEFLYSMKCKNVVPLYDLLLEAADAHRLHAPTSRGGASVEETDQSHLATAGSTSSHSLQKYYITGEAEGFPATGGGGSGGGGSGGGGSVDGFMDVGALESLRGNADLAYILSMEPCGHCLIINNVNFCRESGLRTRTGSNIDCEKLRRRFSSLHFMVEVKGDLTAKKMVLALLELARQDHGALDCCVVVILSHGCQASHLQFPGAVYGTDGCPVSVEKIVNIFNGTSCPSLGGKPKLFFIQACGGEQKDHGFEVASTSPEDESPGSNPEPDATPFQEGLRTFDQLDAISSLPTPSDIFVSYSTFPGFVSWRDPKSGSWYVETLDDIFEQWAHSEDLQSLLLRVANAVSVKGIYKQMPGCFNFLRKKLFFKTS | 1.4 | cells were completely killed by day 2 | – | –
4 | Construct 2: GAPDH-targeting construct encoding fusion polypeptide ERT2*mut88-Casp9, SEQ ID NO: 46 (protein) AGDMRAANLWPSPLMIKRSKKNSLALSLTADQMVSALLDAEPPILYSEYDPTRPFSEASMMGLLTNLADRELVHMINWAKRVPGFVDLTLHDQVHLLECAWLEILMIGVVWRSMEHPVKLLFAPNLLLDRDEGKCVEGMVEIFDMLLATSSRFRMMNLQGEEFVCLKSIILLNSGVYTFLPSTLKSLEEKDHIHRVLDKITDTLIHLMAKAGLTLQQQHQRLAQLLLILSHIRHMSNKGMEFLYSMKCKNVVPLYDLLLEAADAHRLHAPTSRGGASVEETDQSHLATAGSTSSHSLQKYYITGEAEGFPATGGGGSGGGGSGGGGSVDGFMDVGALESLRGNADLAYILSMEPCGHCLIINNVNFCRESGLRTRTGSNIDCEKLRRRFSSLHFMVEVKGDLTAKKMVLALLELARQDHGALDCCVVVILSHGCQASHLQFPGAVYGTDGCPVSVEKIVNIFNGTSCPSLGGKPKLFFIQACGGEQKDHGFEVASTSPEDESPGSNPEPDATPFQEGLRTFDQLDAISSLPTPSDIFVSYSTFPGFVSWRDPKSGSWYVETLDDIFEQWAHSEDLQSLLLRVANAVSVKGIYKQMPGCFNFLRKKLFFKTS | 0.7 | did not induce apoptosis | failed to do so | apoptotic (killing) efficacy (iPSC clones; 5 nM 4-OHT): able to induce apoptosis; apoptotic (killing) efficacy (iPSC clones; 10 nM Endoxifen, compared to hygromycin kill control): able to induce apoptosis
5 | Construct 4: GAPDH-targeting construct encoding fusion polypeptide ERT2*mut41-Casp9, SEQ ID NO: 50 (protein) AGDMRAANLWPSPLMIKRSKKNSLALSLTADQMVSALLDAEPPILYSEYDPTRPFSEASMMGLLTNLADREIVHMINWAKRVPGFVDLTLHDQVHLLECAWLEILMIGVVWRSMEHPVKLLFAPNLVLDRDEGKCVEGMVEIFDMLLATSSRFRMMNLQGEEFVCLKSIILLNSGVYTFLSSTLKSLEEKDHIHRVLDKITDTLIHLMAKAGLTLQQQHQRLAQLLLILSHIRHMSNKGMELLYSMKCKNVVPLYDLLLEAADAHRLHAPTSRGGASVEETDQSHLATAGSTSSHSLQKYYITGEAEGFPATGGGGSGGGGSGGGGSVDGFMDVGALESLRGNADLAYILSMEPCGHCLIINNVNFCRESGLRTRTGSNIDCEKLRRRFSSLHFMVEVKGDLTAKKMVLALLELARQDHGALDCCVVVILSHGCQASHLQFPGAVYGTDGCPVSVEKIVNIFNGTSCPSLGGKPKLFFIQACGGEQKDHGFEVASTSPEDESPGSNPEPDATPFQEGLRTFDQLDAISSLPTPSDIFVSYSTFPGFVSWRDPKSGSWYVETLDDIFEQWAHSEDLQSLLLRVANAVSVKGIYKQMPGCFNFLRKKLFFKTS | 2.3 | cells were completely killed by day 2 | – | –
